In US12637662B2, “Cells, islets, and organoids that evade immune detection and autoimmunity, methods of production and use thereof” (SALK INSTITUTE FOR BIOLOGICAL STUDIES, priority 2018, dated 2026):

Tested on: human iPSC derived cells (islet-like organoids, MCS, HILOs)
Experiment: Glucose-stimulated insulin/c-peptide secretion assay (GSIS, ELISA)
Assay type: cell-based
Procedure: Insulin release from intact islets was monitored using batch incubation methods as reported by E. Yoshihara et al., 2016, Cell metabolism, 23:622-634. Briefly, overnight-cultured, isolated pancreatic islets (RPMI-1640 medium supplemented with 10% (v/v) fetal bovine serum and 1% (v/v) Antibiotic-Antimycotic (Gibco)) were pre-cultured at 37° C. for 30 minutes in Krebs-Ringer bicarbonate buffer (KRBB) containing 129.4 mM NaCl, 3.7 mM KCl, 2.7 mM CaCl2), 1.3 mM KH2PO4, 1.3 mM MgSO4, 24.8 mM NaHCO3 (equilibrated with 5% CO2, 95% O2, pH 7.4), 10 mM HEPES and 0.2% (v/v) BSA (fraction V, Sigma) (KRBH) with 3 mM glucose). […] After 30 minutes, the islets were pelleted by centrifugation and secreted insulin levels were determined in the medium by Enzyme Linked Immunosorbent Assay (ELISA), (Rat/mouse Insulin ELISA KIT (Millipore) and Human Insulin ELISA KIT or ultrasensitive human c-peptide ELISA Kit (Millipore) for mouse and human islets, respectively). […] After 30 minutes, the cells were pelleted by centrifugation and c-peptide levels were determined in the supernatant medium using the human c-peptide ELISA KIT (Millipore). […]
Insulin release from intact islets was monitored using batch incubation methods (Yoshihara et al., 2010, Nat. Commun. 1:127). […] After 30 min, the cells were pelleted by centrifugation and c-peptide levels were determined by human c-peptide ELISA KIT (Millipore).

B1: WNT4: recombinant human Wnt4 protein (R&D Systems), non-canonical WNT maturation factor (protein, UniProt P56705 23-351, looked up)
Protein Wnt-4: SNWLYLAKLSSVGSISEEETCEKLKGLIQRQVQMCKRNLEVMDSVRRGAQLAIEECQYQFRNRRWNCSTLDSLPVFGKVVTQGTREAAFVYAISSAGVAFAVTRACSSGELEKCGCDRTVHGVSPQGFQWSGCSDNIAYGVAFSQSFVDVRERSKGASSSRALMNLHNNEAGRKAILTHMRVECKCHGVSGSCEVKTCWRAVPPFRQVGHALKEKFDGATEVEPRRVGSSRALVPRNAQFKPHTDEDLVYLEPSPDFCEQDMRSGVLGTRGRTCNKTSKAIDGCELLCCGRGFHTAQVELAERCSCKFHWCCFVKCRQCQRLVELHTCR
For B1, the “glucose-stimulated insulin (c-peptide) secretion in vitro” value (3 mM vs 20 mM glucose) was “showed functional maturation” and the “pseudo-islet formation and GSIS of commercially-available hiPSC-derived β like cells” value (3D differentiation medium containing WNT4) was “promoted pseudo-islet formation and GSIS functionality”.
